Source: patent US9157064B2, “Methods for generating inner ear cells in vitro” (The Board of Trustees of the Leland Stanford Junior …, priority 2011, dated 2015)
“Also recorded” adds a separate entry of the source.

Key:
[1] = test system: ESC- and iPSC-derived cells; assay: Differentiation cultures of D/S/I and bFGF-treated ESC- and iPSC-derived cells with added supplements; format: cell-based, mouse; conditions: differentiation cultures supplemented, data not shown
From the text: Future identification of these signals could provide important clues about the mechanisms controlling the initiation of hair bundle growth during embryonic development.
Beside FGF signaling, activation of the canonical Wnt pathway has been proposed to further promote otic commitment of Pax2-expressing cells of the FGF-dependent pre-otic field of the chicken embryo (Ohyama et al., 2006).

[2] = test system: ESC-derived embryoid bodies; assay: Suppression of meso- and endodermal differentiation in ESC-derived embryoid bodies (Brachyury/GATA6 immunostaining); format: cell-based, mouse; conditions: single factor
Description: (§1) ES cell line C9 and iPS cell line #25-5 were used for all guidance experiments. MEF feeder cells were removed either by weaning the cells off for several passages or by pre-culturing the cells for 40 min allowing MEFs to attach. For embryoid body formation, the cells were dissociated with 0.25% trypsin-EDTA (Invitrogen) and cultured in poly(2-hydroxyethyl methacrylate)-coated 6-well cell suspension plates (Greiner). Coating was done by covering the plates with 1 ml of 2% poly(2 hydroxyethyl methacrylate) (Sigma) solution in 1:1 ethanol/acetone. After 2 min, the solution was completely aspirated and the plates were dried with open lid for 20 min in a cell culture cabinet. After three washes with PBS, the ES and iPS cells were added at a density of 50 cells/ml and cultured for 5 days in DMEM (Invitrogen) with 15% FBS, 0.1 mM MEM non-essential amino acids, […] 2-mercaptoethanol, 2 mM L-glutamine and […] ampicillin. For otic induction experiments, the following growth factors or reagents were added to the medium: recombinant mouse Dickkopf related protein 1 (Dkk-1) at 100 ng/ml (R&D Systems), SIS3 at […] (Sigma), and IGF1 at 10 ng/ml (Sigma). […]
(§2) For immunocytochemistry, the cells were fixed with 4% paraformaldehyde in PBS for 15 min at room temperature. […] Images were acquired with a Zeiss Axioimager/LSM 5 Exciter fluorescence and confocal microscope. […]

ESC-derived cultures = assay: Otic induction of ESC-derived embryoid body cultures (Pax2 immunostaining); format: cell-based, mouse; conditions: D/S/I-treated ESC-derived embryoid body cells; SU5402 treatment between d5 and d8
Description: Embryoid bodies were transferred into fibronectin-coated 4-well dishes (Greiner) at 30 embryoid bodies per well and cultured for three days in DMEM/F12 (Invitrogen, mixed 1:1) supplemented with N2 and B27 (Invitrogen), bFGF (R&D Systems, 25 ng/ml), heparin sulfate (Sigma, 50 ng/ml), and ampicillin ([…]). FGF3 (recombinant human FGF-3, R&D Systems) and FGF10 (recombinant human FGF-10, R&D Systems) were used at 25 ng/ml in parallel experiments. The FGF receptor antagonist SU5402 (a gift from Pfizer R&D) was used at […]. After FGF-treatment, the cells were detached using 0.05% trypsin/EDTA (Sigma) in PBS, mildly triturated, and passed 1:10 into individual wells of 4-well dishes coated with either fibronectin, gelatin, MEFs, or mitotically inactivated embryonic (E18) chicken utricle stromal cells. Utricle stromal cells were prepared from 20 utricles whose sensory epithelia were removed after 40 min treatment with 0.5 mg/ml thermolysin (Sigma) in DMEM/F12 at 37 C. After addition of 5% serum, the sensory epithelia were removed and used in unrelated experiments. […]
as §2

hESCs = assay: Otic induction from hESCs (PAX2-expressing otic progenitor cells); format: cell-based, human; conditions: hESC-derived cultures; factor added in the induction and/or stabilization phase (FIG. 23)
Description: FIG. 22. Optimization of lengths of incubations with factors for culturing cell populations comprising otic progenitor cells from hESCs. (a) and (b). A culture that is enriched 8.3% for PAX2-expressing otic progenitor cells may be generated by the incubation of hESCs with DKK1/SIS3/IFG-1 for 5 days, followed by incubation of the resultant embryoid bodies comprising preplacodal ectodermal cells with bFGF for 3 days.
FIG. 23A-C. Culturing in the presence of different factors impacts the proportion of otic progenitor cells produced. (a) Culturing in the presence of BMP4 reduces the proportion of otic progenitor cells produced. (b) Culturing in the presence of Noggin during the induction phase of otic progenitor cell fate acquisition, and restricting the exposure of cells to BMP4 to the stabilization phase of otic progenitor cell fate acquisition increases the proportion of otic progenitor cells produced. (c) Culturing in the presence of R-spondin 1 during the induction phase of otic progenitor cell fate acquisition increases the proportion of otic progenitor cells produced.
FIG. 23D. Culturing in the presence of FGF19 during both the induction phase and the stabilization phase of otic progenitor cell fate acquisition increases the proportion of otic progenitor cells produced.

[3] = test system: iPSC-derived embryoid bodies; assay: Suppression of meso- and endodermal differentiation in iPSC-derived embryoid bodies (Brachyury/GATA6 immunostaining); format: cell-based, mouse; conditions: single factor
Description: as §1, §2

[Cl-].[Li+] [LiCl, reference compound]
ability or efficiency to generate hair cell-like cells [1]: did not observe an increase

COc1cc2c(cc1OC)CN(C(=O)/C=C/c1c(-c3ccccc3)n(C)c3ncccc13)CC2 [SIS3, reference compound]
number of Brachyury-positive cells, factor alone [2]: significantly reduced

Cc1c[nH]c(/C=C2\C(=O)Nc3ccccc32)c1CCC(=O)O [SU5402]
Pax2 induction / Pax2 expression (ESC-derived cultures): abolishment of Pax2 induction; also recorded: virtually diminished Pax2 expression

FGF19: fibroblast growth factor 19, ligand for FGFR4
proportion of otic progenitor cells produced (hESCs): increases

B1: Wnt3a: recombinant Wnt3a (protein, UniProt P56704 19-352, looked up)
Protein Wnt-3a: SYPIWWSLAVGPQYSSLGSQPILCASIPGLVPKQLRFCRNYVEIMPSVAEGIKIGIQECQHQFRGRRWNCTTVHDSLAIFGPVLDKATRESAFVHAIASAGVAFAVTRSCAEGTAAICGCSSRHQGSPGKGWKWGGCSEDIEFGGMVSREFADARENRPDARSAMNRHNNEAGRQAIASHMHLKCKCHGLSGSCEVKTCWWSQPDFRAIGDFLKDKYDSASEMVVEKHRESRGWVETLRPRYTYFKVPTERDLVYYEASPNFCEPNPETGSFGTRDRTCNVSSHGIDGCDLLCCGRGHNARAERRREKCRCVFHWCCYVSCQECTRVYDVHTCK
ability or efficiency to generate hair cell-like cells [1]: did not observe an increase

B2: Dkk1: recombinant mouse Dickkopf related protein 1, Wnt inhibitor (protein, UniProt O54908 32-272, looked up)
Dickkopf-related protein 1: TLNSVLINSNAIKNLPPPLGGAGGQPGSAVSVAPGVLYEGGNKYQTLDNYQPYPCAEDEECGSDEYCSSPSRGAAGVGGVQICLACRKRRKRCMRHAMCCPGNYCKNGICMPSDHSHFPRGEIEESIIENLGNDHNAAAGDGYPRRTTLTSKIYHTKGQEGSVCLRSSDCAAGLCCARHFWSKICKPVLKEGQVCTKHKRKGSHGLEIFQRCYCGEGLACRIQKDHHQASNSSRLHTCQRH
number of Brachyury-positive cells, factor alone [2]: significantly reduced
Brachyury-expressing cell population, factor alone [3]: significantly reduce

B3: Noggin: naturally occurring inhibitor of BMP signaling (protein, UniProt Q13253 28-232, looked up)
Noggin: QHYLHIRPAPSDNLPLVDLIEHPDPIFDPKEKDLNETLLRSLLGGHYDPGFMATSPPEDRPGGGGGAAGGAEDLAELDQLLRQRPSGAMPSEIKGLEFSEGLAQGKKQRLSKKLRRKLQMWLWSQTFCPVLYAWNDLGSRFWPRYVKVGSCFSKRSCSVPEGMVCKPSKSVHLTVLRWRCQRRGGQRCGWIPIQYPIISECKCSC
proportion of otic progenitor cells produced (hESCs): increases

B4: BMP4: activator of BMP signaling (protein, UniProt P12644 293-408, looked up)
Bone morphogenetic protein 4: SPKHHSQRARKKNKNCRRHSLYVDFSDVGWNDWIVAPPGYQAFYCHGDCPFPLADHLNSTNHAIVQTLVNSVNSSIPKACCVPTELSAISMLYLDEYDKVVLKNYQEMVVEGCGCR
proportion of otic progenitor cells produced (hESCs): reduces

B5: R-spondin 1: Roof plate-specific Spondin 1, natural enhancer of the canonical Wnt pathway (protein, UniProt Q2MKA7 21-263, looked up)
R-spondin-1: SRGIKGKRQRRISAEGSQACAKGCELCSEVNGCLKCSPKLFILLERNDIRQVGVCLPSCPPGYFDARNPDMNKCIKCKIEHCEACFSHNFCTKCKEGLYLHKGRCYPACPEGSSAANGTMECSSPAQCEMSEWSPWGPCSKKQQLCGFRRGSEERTRRVLHAPVGDHAACSDTKETRRCTVRRVPCPEGQKRRKGGQGRRENANRNLARKESKEAGAGSRRRKGQQQQQQQGTVGPLTSAGPA
proportion of otic progenitor cells produced (hESCs): increases
